# Measurements published in PMC6375729 (Molecular Cell, 2019).
# Where no end group is shown, it is not given here.
# How the values were obtained:
# Conditions in all cases: both partners purified
# [1] = biological target: BRD4 second bromodomain (BD2), D334-E460 (human, UniProt O60885-1 334-460); test: ITC; peptide in the syringe titrated into protein in the cell; 15 °C; 50 mM HEPES pH 7.5, 150 mM NaCl; single binding site model
# [2] = biological target: BRD4 first bromodomain (BD1), N44-E168 (human, UniProt O60885-1 44-168); test: as above
# [3] = biological target: hexa-His-tagged BRD4 extra-terminal domain (BRD4/ET) (human, UniProt O60885-1 589-676); test: peptide or protein array; cellulose SPOT peptide arrays probed with hexa-His-tagged BRD4 domains, detected with HRP-conjugated anti-His antibody
Kd [1],stoichiometry N [1],Kd [2],stoichiometry N [2],binding result [3],Binder
25.7 ± 1.8 µM,0.59 ± 0.018,37.8 ± 3.61 µM,0.62 ± 0.311,,HFAK(Ac)ARK(Ac)VPS [FOXN3 K426ac/K429ac peptide]
29.4 ± 1.84 µM,1.1 ± 0.031,70.4 ± 3 µM,0.99 ± 0.061,,LTNK(Ac)GHK(Ac)WKQ [DMTF1 K147ac/K150ac peptide]
,,,,binds,"PKDKAIKKFVIRNIVEAA (peptide, UniProt P62854 31-48, looked up, RPS26 residues 31-48, motif printed as KFVIK; source: synthesised on cellulose membrane (SPOT)) [RPS26 peptide region, residues 31-48 (SPOT)]"
,,,,binds,"KTGSPEIKLKITKTIQ (peptide, UniProt Q9BZ95 147-162, looked up, source: synthesised on cellulose membrane (SPOT)) [WHSC1L1 peptide, amino acids 147–162 (SPOT)]"
7.75 ± 0.12 µM,0.75 ± 0.029,63.6 ± 1.6 µM,0.64 ± 0.026,,RRRK(Ac)RFK(Ac)RHQ [FOXD3 K235ac/K238ac peptide]
44.8 ± 3.03 µM,0.6 ± 0.021,137 ± 16.9 µM,0.81 ± 0.082,,IHCK(Ac)AGK(Ac)GRT [PTEN K125ac/K128ac peptide]
,,158 ± 20.1 µM,0.58 ± 0.385,,NSNK(Ac)YTK(Ac)SRG [FOXO3 K259ac/K262ac peptide]
44.4 ± 2.89 µM,0.64 ± 0.021,16.4 ± 0.5 µM,0.49 ± 0.005,,DGGK(Ac)SGK(Ac)APR [FOXO3 K242ac/K245ac peptide]
